Reference: patent US20250136702A1, “HUMAN LIFR ANTIGEN BINDING PROTEIN, PREPARATION METHOD THEREFOR, AND APPLICATION THEREOF” (NONA BIOSCIENCES (SUZHOU) CO., LTD., priority 2020, published 2025)

Biological target: human LIFR expressed on the surface of 293T cells (human) (UniProt P42702)
Assay: flow cytometry on HEK293T-huLIFR cells, median fluorescence, span of the fitted curve

Chain of human LIFR expressed on the surface of 293T cells (human) (P42702 45-1097): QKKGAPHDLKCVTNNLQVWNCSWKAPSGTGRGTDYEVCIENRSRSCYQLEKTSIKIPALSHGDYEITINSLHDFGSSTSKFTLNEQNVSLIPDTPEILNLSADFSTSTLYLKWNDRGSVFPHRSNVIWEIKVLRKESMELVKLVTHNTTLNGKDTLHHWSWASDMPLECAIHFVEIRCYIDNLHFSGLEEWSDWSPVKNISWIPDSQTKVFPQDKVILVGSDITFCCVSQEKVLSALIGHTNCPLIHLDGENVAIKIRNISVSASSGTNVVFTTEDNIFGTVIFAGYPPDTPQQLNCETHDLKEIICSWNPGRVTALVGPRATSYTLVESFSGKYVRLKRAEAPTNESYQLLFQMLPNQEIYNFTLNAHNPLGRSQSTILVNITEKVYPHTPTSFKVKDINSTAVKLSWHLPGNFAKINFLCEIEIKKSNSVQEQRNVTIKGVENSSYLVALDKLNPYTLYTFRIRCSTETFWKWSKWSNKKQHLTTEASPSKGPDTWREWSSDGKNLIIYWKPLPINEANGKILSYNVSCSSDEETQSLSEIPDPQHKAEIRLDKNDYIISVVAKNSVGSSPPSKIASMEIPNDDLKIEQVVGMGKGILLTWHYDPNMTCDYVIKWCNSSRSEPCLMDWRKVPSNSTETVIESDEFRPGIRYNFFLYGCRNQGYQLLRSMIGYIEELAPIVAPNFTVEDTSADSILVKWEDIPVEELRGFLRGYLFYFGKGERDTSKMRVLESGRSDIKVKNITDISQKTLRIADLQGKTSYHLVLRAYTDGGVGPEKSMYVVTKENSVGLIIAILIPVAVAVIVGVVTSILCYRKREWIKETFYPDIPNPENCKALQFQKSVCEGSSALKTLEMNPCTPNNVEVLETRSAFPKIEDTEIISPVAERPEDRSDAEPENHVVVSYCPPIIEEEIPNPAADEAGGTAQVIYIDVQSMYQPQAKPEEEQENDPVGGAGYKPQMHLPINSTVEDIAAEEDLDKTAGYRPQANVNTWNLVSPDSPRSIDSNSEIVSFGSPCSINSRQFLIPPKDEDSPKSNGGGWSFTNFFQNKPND

B1: PR301127 (antibody, human IgG1, kappa, V domains shown)
VH: EVQLLQSGGGLVQPGGSLRLSCAASGFTFSNYAMTWVRQAPGKGLEWVSTISGSGAFTYYADAVKGRFTISRVNSKNSLDLQMNSLRAEDTAVYYCAKGGILTGFDNWGQGTLVTVSS
VL: DIQMTQSPSTLSASVGDRVTITCRASQSISSWLAWYQQKPGKAPKLLIYKASSLESGVPSRFSGSGSGTEFSFTISSLQPDDFATYYCQQYKSFSPGGLTFGGGTKVEIKR
- Span: 237
